From patent US20240190937A1, “HUMAN INSULIN C-ALPHA-PEPTIDES AND METHODS OF USE” (The United States of America, as represented by the …, priority 2021, published 2024)

Columns and labels:
β-Amyloid (1-42) = β-Amyloid (1-42) (Homo sapiens, UniProt P05067); test: β-Amyloid (1-42) fibrillation assay (ThT binding to amyloid); type: biochemical; details: 50 μM β-Amyloid plus 50 μM peptide; time range of 60-240 min; three replicates
Protocol: FIGS. 21A-21C show inhibition of β-Amyloid (1-42) fibrillation by C- (C-pep) and Cα-peptides (Cα-pep). […] FIG. 21B is a box-whisker plot on C- and Cα-pep inhibition of β-Amyloid fibrillation in time range of 60-240 min. […] Fluorescence intensity (F.I.) represents ThT binding to amyloid. AUC represents area under curve calculated by Trapezoid rule. Aβ(1-42) represents 50 μM β-Amyloid plus buffer, C-pep represents 50 μM β-Amyloid plus 50 μM C-pep, and Cα-pep represents 50 μM β-Amyloid plus 50 μM Cα-pep.
Thioflavin T (ThT) was from MilliporeSigma (catalog number T3516; Rockville, MD). IAPP (37 AA) (catalog number LT110006) (amidated C-terminal and disulfide bridge between Cys2 and Cys7) was from LifeTein (Hillsborough, NJ), and C-peptide (catalog number AS-61127) was from AnaSpec (Fremont, CA). Cα-peptide was custom made (Genemed Synthesis, Inc., San Antonio, TX). Black 96-well microplates (chimney well) were from Greiner Bio-One (Frickenhausen, Germany). […] Amyloid kinetics were measured by increasing ThT fluorescent amyloid binding intensity (1ex 440 nm; 1em 485 nm; height 3 mm; flashes 12) for 36 cycles, 5 min per cycle, at 37° C. with 15 s of shaking (100 rpm) between the reads in the EnSpire Multimode Plate Reader (PerkinElmer, Inc., Waltham, MA).

IAPP = target: T1, IAPP (Homo sapiens, UniProt P10997); test: IAPP aggregation assay (Thioflavin T fluorescence); type: biochemical; details: 50 mmol/L IAPP plus 50 mmol/L peptide; 37° C.; range of 90-130 min; three replicates
T1 construct: IAPP (37 AA) (catalog number LT110006) (amidated C-terminal and disulfide bridge between Cys2 and Cys7) was from LifeTein; purchased LifeTein (Hillsborough, NJ) LT110006
T1 sequence (P10997 34-70 limits assumed): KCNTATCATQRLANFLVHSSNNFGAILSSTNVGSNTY
Source text: Thioflavin T (ThT) was from MilliporeSigma (catalog number T3516; Rockville, MD). IAPP (37 AA) (catalog number LT110006) (amidated C-terminal and disulfide bridge between Cys2 and Cys7) was from LifeTein (Hillsborough, NJ), and C-peptide (catalog number AS-61127) was from AnaSpec (Fremont, CA). Cα-peptide was custom made (Genemed Synthesis, Inc., San Antonio, TX). Black 96-well microplates (chimney well) were from Greiner Bio-One (Frickenhausen, Germany). Soluble and monomeric IAPP was made according to published protocols (Stine et al., Methods Mol. Biol. 670:13-32, 2011; Tu et al., Biochemistry 54:666-676, 2015), and the AnaSpec Manual of SensoLyte Thioflavin T Aggregation Kit (catalog number AS-72214) was used for the IAPP aggregation assay, with final concentration of 1% DMSO and […] ThT in component A buffer. The buffer was used as blank and IAPP without inhibitors, and the final concentration of IAPP and C- and Cα-peptides was […] each in the inhibition assays. Amyloid kinetics were measured by increasing ThT fluorescent amyloid binding intensity (1ex 440 nm; 1em 485 nm; height 3 mm; flashes 12) for 36 cycles, 5 min per cycle, at 37° C. with 15 s of shaking (100 rpm) between the reads in the EnSpire Multimode Plate Reader (PerkinElmer, Inc., Waltham, MA).

Chain of β-Amyloid (1-42) (P05067 672-713 limits assumed): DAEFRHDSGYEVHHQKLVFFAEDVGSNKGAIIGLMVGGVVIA

Substance	inhibition of β-Amyloid fibrillation (ThT fluorescence intensity, AUC) (β-Amyloid (1-42))	inhibition of IAPP fibrillation (ThT fluorescence intensity, AUC) (IAPP)
EAEDLQGSLQPLALEGSLQ (C-alpha peptide; listed as Homo sapiens) [Cα-peptide, human 19-AA insulin C-peptide variant encoded by INS3B isoform; custom made by Genemed Synthesis]	inhibits	inhibited IAPP fibrillation more efficiently than C-peptide
C-peptide: classical 31-AA human insulin C-peptide, AnaSpec catalog number AS-61127 (EAEDLQVGQVELGGGPGAGSLQPLALEGSLQ)	not	inhibition of IAPP fibrillation
